The source of these data is patent publication US20130263331A1.

For assay [1], the target named is putative receptor(s) on brush border membrane vesicles (BBMV) prepared from midguts of third instars of the western corn rootworm (Diabrotica virgifera virgifera LeConte) (Diabrotica virgifera virgifera).
For assay [2] the target is unchanged. The assay can be described thus: Homologous competition: unlabeled Cry3Aa (0-2500 nM) against 5 nM 125I-Cry3Aa on 0.1 mg/ml BBMV; value at about 2500 nM competitor.

In assay [1], “Cry3Aa trypsin core (from UniProt P0A379 159-644)” came in with a dissociation constant (Kd) of 24 nM and a binding site concentration Bmax (pmole/mg BBMV) of 22. In assay [2], this substance gave a percent of bound 125I-Cry3Aa displaced of 60%.

In assay [1], “Full-length Cry6Aa1 (from UniProt Q45757 1-475)” showed a Kd of 10.1 nM and a binding site concentration Bmax (pmole/mg BBMV) of 0.66.
